In patent publication US8461305B2, “L-fucose α1→6 specific lectin” (J-Oil Mills, Inc., priority 2008, dated 2013):

B1: Lens culinaris agglutinin (protein)
chain 1: TETTSFSITKFSPDQKNLIFQGDGYTTKGKLTLTKAVKSTVGRALYSTPIHIWDRDTGNVANFVTSFTFVIDAPSSYNVADEFTFFIAPVDTKPQTGGGYLGVFNSKEYDKTSQTVAVEFDTFYNAAWDPSNKERHIGIDVNSIKSVNTKSWNLQNGERANVVIAFNAATNVLTVTLTYP
chain 2: VTSYTLNEVVPLKDVVPEWVRIGFSATTGAEFAAHEVHSWSFHSELGGTSSS
B2: Aleuria aurantia lectin (protein)
chain: PTEFLYTSKIAAISWAATGGRQQRVYFQDLNGKIREAQRGGDNPWTGGSSQNVIGEAKLFSPLAAVTWKSAQGIQIRVYCVNKDNILSEFVYDGSKWITGQLGSVGVKVGSNSKLAALQWGGSESAPPNIRVYYQKSNGSGSSIHEYVWSGKWTAGASFGSTVPGTGIGATAIGPGRLRIYYQATDNKIREHCWDSNSWYVGGFSASASAGVSIAAISWGSTPNIRVYWQKGREELYEAAYGGSWNTPGQIKDASRPTPSLPDTFIAANSSGNIDISVFFQASGVSLQQWQWISGKGWSIGAVVPTGTPAGW

Key:
[1] = frontal affinity chromatography (FAC), association constant to PA sugar chains having other L-fucose; assay type: binding; conditions: 25 degrees C.
Method: The following section will describe a method of calculating an association constant by frontal affinity chromatography (FAC). This method is based on the following principle. […] Then, the elution front end (front) is observed immediately. When there is an affinity with lectin, the elution of the sugar chain is delayed.
The preparation of a lectin column used in the apparatus is performed in the method as described below. 1. Purified lectin is dissolved in 0.1 to 0.2M of NaHCO3 buffer solution (pH 8.3 to 8.5). 2. The lectin is immobilized, via a lectin primary amino group, a carrier such as NHS activated sepharose. 3. Then, the lectin is blocked by Tris buffer solution including primary amine or ethanolamine for example. 4. Lectin-sepharose is suspended in 10 mM Tris buffer, including 0.8% of NaCl (pH 7.4, TBS). Then, lectin immobilized resin is filled in a miniature column (φ2 mm×10 mm, 31.4 μl). 5. The miniature column in which the lectin immobilized resin is filled is protected by a holder and the lectin column is connected to an FAC automatic analysis apparatus (FAC-1, SHIMADZU CORPORATION).
Then, the elution of the PA sugar chain from the column is detected by a fluorescence detector (excitation wavelength/fluorescence wavelength: 310 nm/380 nm).
Based on the detection data, by using the elution front end (Vo) of the sugar chain (PA rhamnose) not interacting with lectin as a reference, the delay (V−Vo) of the elution front end (V) of a sugar chain interacting with lectin is calculated as an interaction strength. Then, based on the following FAC criteria expressions, the association constant (Ka) between the sugar chain and lectin is calculated based on V−Vo and Bt. If the interaction strength (V−Vo value) and the association constant are higher, a higher affinity is caused between lectin and an L-fucose α1→6 sugar chain.
[In the formula, A means substance used for the elution, Ao means the initial concentration of the substance A, B means a immobilized ligand, V means the elution volume, Vo means the elution front end volume of the substance not interacting with the immobilized ligand B at all, Bt means an effective ligand amount, Kd means a dissociation constant (an inverse of the association constant)].
Pyridylaminated (PA) sugar chains shown in FIG. 1 and FIG. 2 were used to frontal affinity chromatography (FAC) analysis. PA sugars were purchased from TAKARA BIO INC., SEIKAGAKU BIOBUSINESS CORPORATION, and Masuda Chemical Industries co., LTD. PA sugar were also obtained by pyridylaminating, by GlycoTAG®(TAKARA BIO INC.), an unlabeled sugar chain or a sugar chain obtained by subjecting a sugar chain to enzyme digestion for example.
Lectin was dissolved in 0.2 M NaHCO3 buffer solution (pH 8.3) including 0.5 M NaCl and coupled to the NHS-activated sepharose (GE Healthcare Bioscience) by following the manufacturer's instructions. Then, lectin immobilized sepharose was suspended in 10 mM Tris buffer (pH 7.4, TBS) including […] and the resultant matter was filled in a miniature column (φ2 mm×10 mm, 31.4 μl).
Frontal affinity chromatography was performed using FAC automatic analysis apparatus (FAC-1, SHIMADZU CORPORATION). In particular, the above-prepared lectin column was inserted to a stainless steel holder and the holder was connected to FAC-1 apparatus. The flow rate and the column temperature were maintained at 0.125 ml/min and 25 degrees C., respectively. After the miniature column was equilibrated by the TBS, an excessive volume (0.5 ml to 4 ml) of a PA sugar chain (3.75 nM or 7.5 nM) was continuously inputted to the column using an automatic sampling apparatus.
The fluorescent strength of the eluate of the PA sugar (excitation wavelength of 310 nm and fluorescence wavelength of 380 nm) was monitored to measure the interaction strength [a difference of the front end eluate to the standard oligosaccharide (PA rhamnose): V−V0]. […]

glycoproteins = experiment: hemagglutinating inhibition test with glycoproteins (sugar binding specificity); assay type: cell-based
Description: The sugar binding specificity of lectin also can be confirmed by using erythrocytes that can be specifically agglutinated by the lectin to investigate the sugar type that may inhibit the agglutination of the erythrocytes and the concentration thereof.
Various monosaccharides, oligosaccharides, and polysaccharides shown in Table 2 and glycoproteins shown in Table 3 were subjected to hemagglutinating inhibition test to evaluate PTL of Example 1 and the SRL of Example 2 with regard to the sugar binding specificity.
On a 96 well U-bottom microtiter plate, double dilution series of 10 μl of monosaccharide, oligosaccharide, polysaccharide, and glycoprotein solutions were prepared. Then, lectin solution adjusted in advance to have titer 4 was added in an amount of 10 μl to the respective wells. Then, the plate was subjected to a still-standing at a room temperature for one hour for sensitization. Then, 10 μl of 4%-red blood cell suspension was added to the respective wells and the plate was further subjected to a still-standing at a room temperature for one hour. […] The lowest concentration showing the inhibition was assumed as the minimum inhibition concentration. The lower the minimum inhibition concentration is, the higher the specificity to lectin is.
For comparison, the sugar binding specificity was evaluated using the following commercially-available lectins: Comparison Example 1: AAL (SEIKAGAKU BIOBUSINESS CORPORATION—J-OIL MILLS, Inc.), Comparison Example 2: AOL (TOKYO CHEMICAL INDUSTRY CO., LTD.—Gekkeikan Sake Company, Ltd.), Comparison Example 3: LCA (SEIKAGAKU BIOBUSINESS CORPORATION—J-OIL MILLS, Inc.), and Comparison Example 4: PSA (SEIKAGAKU BIOBUSINESS CORPORATION—J-OIL MILLS, Inc.).

[2] = Sugar chain No. 728 (as listed in Table 5/12)
[3] = inhibitor: Bovine blood serum albumin
[4] = inhibitor: Human immune globulin A
[5] = inhibitor: Human immune globulin G
[6] = inhibitor: α1-acidic glycoprotein

Row | Molecule | association constant Ka ([1]; Sugar chain No. 419) [M⁻¹] | association constant Ka ([1]; Sugar chain No. 420) [M⁻¹] | association constant Ka ([1]; Sugar chain No. 718) [M⁻¹] | association constant Ka ([1]; Sugar chain No. 719) [M⁻¹] | association constant Ka ([1]; Sugar chain No. 720) [M⁻¹] | association constant Ka ([1]; Sugar chain No. 721) [M⁻¹] | association constant Ka ([1]; Sugar chain No. 722) [M⁻¹] | association constant Ka ([1]; Sugar chain No. 723) [M⁻¹] | association constant Ka ([1]; Sugar chain No. 726) [M⁻¹] | association constant Ka ([1]; Sugar chain No. 727) [M⁻¹] | association constant Ka [1, 2] [M⁻¹] | association constant Ka ([1]; Sugar chain No. 729) [M⁻¹] | association constant Ka ([1]; Sugar chain No. 730) [M⁻¹] | association constant Ka ([1]; Sugar chain No. 731) [M⁻¹] | association constant Ka ([1]; Sugar chain No. 739) [M⁻¹] | association constant Ka ([1]; Sugar chain No. 909) [M⁻¹] | association constant Ka ([1]; Sugar chain No. 910) [M⁻¹] | association constant Ka ([1]; Sugar chain No. 931) [M⁻¹] | association constant Ka ([1]; Sugar chain No. 932) [M⁻¹] | association constant Ka ([1]; Sugar chain No. 933) [M⁻¹] | further results
1 | B1 | <1000 | <1000 | <1000 | <1000 | <1000 | <1000 | <1000 | <1000 | <1000 | <1000 | <1000 | <1000 | <1000 | <1000 | <1000 | <1000 | <1000 | <1000 | <1000 | <1000 | minimum inhibition concentration of hemagglutination (glycoproteins; inhibitor: Asialofetuin): 250 μl/ml; minimum inhibition concentration of hemagglutination (glycoproteins; inhibitor: Asialomucin (pig)): >250 μl/ml; minimum inhibition concentration of hemagglutination (glycoproteins; [3]): >250 μl/ml; minimum inhibition concentration of hemagglutination (glycoproteins; inhibitor: Casein): >250 μl/ml; minimum inhibition concentration of hemagglutination (glycoproteins; inhibitor: Fetuin): >250 μl/ml; minimum inhibition concentration of hemagglutination (glycoproteins; [4]): >250 μl/ml; minimum inhibition concentration of hemagglutination (glycoproteins; [5]): >250 μl/ml; minimum inhibition concentration of hemagglutination (glycoproteins; inhibitor: Lactoferrin): >250 μl/ml; minimum inhibition concentration of hemagglutination (glycoproteins; inhibitor: Mucin (bovine)): >250 μl/ml; minimum inhibition concentration of hemagglutination (glycoproteins; inhibitor: Mucin (pig)): >250 μl/ml; minimum inhibition concentration of hemagglutination (glycoproteins; inhibitor: Ribonuclease): >250 μl/ml; minimum inhibition concentration of hemagglutination (glycoproteins; inhibitor: Thyroglobulin): 62.5 μl/ml; minimum inhibition concentration of hemagglutination (glycoproteins; inhibitor: Transferrin): >250 μl/ml; minimum inhibition concentration of hemagglutination (glycoproteins; [6]): >250 μl/ml
2 | B2 | <1000 | <1000 | 65000 | <1000 | <1000 | <1000 | <1000 | 35000 | <1000 | 130000 | <1000 | <1000 | <1000 | <1000 | <1000 | 310000 | 90000 | <1000 | <1000 | 210000 | minimum inhibition concentration of hemagglutination (glycoproteins; inhibitor: Asialofetuin): >250 μl/ml; minimum inhibition concentration of hemagglutination (glycoproteins; inhibitor: Asialomucin (pig)): 31.3 μl/ml; minimum inhibition concentration of hemagglutination (glycoproteins; [3]): >250 μl/ml; minimum inhibition concentration of hemagglutination (glycoproteins; inhibitor: Casein): >250 μl/ml; minimum inhibition concentration of hemagglutination (glycoproteins; inhibitor: Fetuin): >250 μl/ml; minimum inhibition concentration of hemagglutination (glycoproteins; [4]): >250 μl/ml; minimum inhibition concentration of hemagglutination (glycoproteins; [5]): >250 μl/ml; minimum inhibition concentration of hemagglutination (glycoproteins; inhibitor: Lactoferrin): >250 μl/ml; minimum inhibition concentration of hemagglutination (glycoproteins; inhibitor: Mucin (bovine)): >250 μl/ml; minimum inhibition concentration of hemagglutination (glycoproteins; inhibitor: Mucin (pig)): 15.6 μl/ml; minimum inhibition concentration of hemagglutination (glycoproteins; inhibitor: Ribonuclease): >250 μl/ml; minimum inhibition concentration of hemagglutination (glycoproteins; inhibitor: Thyroglobulin): 125 μl/ml; minimum inhibition concentration of hemagglutination (glycoproteins; inhibitor: Transferrin): >250 μl/ml; minimum inhibition concentration of hemagglutination (glycoproteins; [6]): >250 μl/ml
